Assay results published in paper PMC11670113 (Proceedings of the National Academy of Sciences of the …, 2024).

B1: AP-3 δ subunit (residues 1-617), as in the AP-3 core (domain or fragment, human, UniProt O14617 1-617, looked up)
chain: MALKMVKGSIDRMFDKNLQDLVRGIRNHKEDEAKYISQCIDEIKQELKQDNIAVKANAVCKLTYLQMLGYDISWAAFNIIEVMSASKFTFKRIGYLAASQSFHEGTDVIMLTTNQIRKDLSSPSQYDTGVALTGLSCFVTPDLARDLANDIMTLMSHTKPYIRKKAVLIMYKVFLKYPESLRPAFPRLKEKLEDPDPGVQSAAVNVICELARRNPKNYLSLAPLFFKLMTSSTNNWVLIKIIKLFGALTPLEPRLGKKLIEPLTNLIHSTSAMSLLYECVNTVIAVLISLSSGMPNHSASIQLCVQKLRILIEDSDQNLKYLGLLAMSKILKTHPKSVQSHKDLILQCLDDKDESIRLRALDLLYGMVSKKNLMEIVKKLMTHVDKAEGTTYRDELLTKIIDICSQSNYQYITNFEWYISILVELTRLEGTRHGHLIAAQMLDVAIRVKAIRKFAVSQMSALLDSAHLLASSTQRNGICEVLYAAAWICGEFSEHLQEPHHTLEAMLRPRVTTLPGHIQAVYVQNVVKLYASILQQKEQAGEAEGAQAVTQLMVDRLPQFVQSADLEVQERASCILQLVKHIQKLQAKDVPVAEEVSALFAGELNPVAPKAQKKVPV

What was measured:
cryo-EM structure = target: the molecule itself; assay: cryo-EM structure
[1] = target: B1; assay: cryo-EM structure

binding result [1] | Binder | binding result (cryo-EM structure)
 | B1 | binds
binds | full-length, myristoylated Arf1-Q71L (enzyme, myristoylated) not shown | 
